The source of these data is article PMC3171153.

Holding throughout (experiment): SPR; BIAcore T100; scFv-His10-CLAMP (150 nM) captured on ePDZ-b1 affinity clamp immobilised on a CM5 chip; purified SHC1 injected at increasing concentrations, 30 ul/min; PBS with 0.05% Tween 20; global fit, 1:1 interaction model
The target in experiment [1] is anti-SHC1 scFv 72_2B01, His10-CLAMP-tagged.
Experiment [2] has as its target anti-SHC1 scFv 72_1A10, His10-CLAMP-tagged.
In experiment [3] the target is six of the eight chain-shuffled derivatives (positive in immunoprecipitation), as measured by SPR.

Where only a bound is given, the exact number is not on record here.

anti-SHC1 scFv 72_1A10, His10-CLAMP-tagged, sequence (heavy, as listed by the source): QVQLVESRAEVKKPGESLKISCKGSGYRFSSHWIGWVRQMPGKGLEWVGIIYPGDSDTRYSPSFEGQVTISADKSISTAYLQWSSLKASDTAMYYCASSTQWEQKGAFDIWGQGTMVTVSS

B1: SHC1 SH2 domain (purified SHC1 antigen) (domain or fragment)
chain: WFHGKLSRREAEALLQLNGDFLVRESTTTPGQYVLTGLQSGQPKHLLLVDPEGVVRTKDHRFESVSHLISYHMDNHLPIISAGSELCLQQPV
One may read the Kd as the free concentration of one partner at which half of the binding sites on the other are occupied at equilibrium, for simple one-to-one binding. A high value points to a looser complex. Usually koff stands for the rate constant with which the complex falls apart. Low readings indicate a long-lived complex, high ones a short-lived complex. Take B1: in experiment [1], the fold improvement in affinity over 58 E05 was 59 fold and the fold reduction in off-rate against 58 E05 is 3.2 fold. Further, the Kd in experiment [2] was 25 nM. In experiment [3], this molecule had a Kd of less than 60 nM and a koff of less than 0.1 s⁻¹.
